Experiment [1] concerns the target T1, mitogen-activated protein kinase-activated protein kinase 2 (human MK2) (human, UniProt P49137 46-400). Briefly: kinase inhibition, radiometric assay.
The target in experiment [2] is T1, mitogen-activated protein …. Briefly: kinase inhibition, radiometric assay. The source holds these as a separate data set.

Read-outs that look alike come from different tables or passages of the source.

T1 sequence (P49137 46-400): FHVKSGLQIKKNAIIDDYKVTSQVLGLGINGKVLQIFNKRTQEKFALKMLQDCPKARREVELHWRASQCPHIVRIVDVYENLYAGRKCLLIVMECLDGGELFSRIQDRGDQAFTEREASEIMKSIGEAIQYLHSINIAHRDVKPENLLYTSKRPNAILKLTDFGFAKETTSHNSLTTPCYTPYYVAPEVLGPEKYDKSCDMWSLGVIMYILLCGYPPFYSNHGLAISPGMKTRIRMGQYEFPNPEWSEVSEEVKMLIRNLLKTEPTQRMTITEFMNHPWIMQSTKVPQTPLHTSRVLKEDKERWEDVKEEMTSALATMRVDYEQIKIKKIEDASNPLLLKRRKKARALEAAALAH

The molecule KKKALNRQLGVAA yielded an IC50 in experiment [1] of 31.2 µM. On the same count and under the same terms, the result for YARAAARQARA reads over 1000 µM. In the case of KAFAKLAARLYRKALARQLGVAA, the half-inhibitory concentration (IC50) in experiment [2] turned out to be 4.43 µM. That is a single-digit micromolar value.

The term IC50 denotes the concentration needed to halve the response being measured. The low end stands for higher potency, the high end for lower potency.

(Values after patent publication US20100158968A1 (published 2010).)
